One block for each binder: values may come before it.
Experiments:
[1] = target: T1, GFP-GBF1 (wild type) immunoprecipitated from cells expressing active SrcEG (tyrosine-phosphorylated GBF1) (human, UniProt Q92538-1 1-1859, phosphotyrosine at Y876 and Y898 and at eight other tyrosines (10 in all by mass spectrometry; positions 317, 377, 515 and five tyrosines in HDS2/3 are named)); assay: cell-based or functional assay
[2] = target: T1, GFP-GBF1 (wild type) immunoprecipitated …; assay: pull-down; in vitro Arf1 binding assay: NGFP-GBF1 immunoprecipitated on GFP-trap agarose beads from cells expressing SrcKM or SrcEG, incubated with 4 mg lysate of HEK293T cells expressing Arf1-V5 (pre-cleared) for 1 hr at 4°C in the presence of GDP; washed three times with HKMT buffer (20 mM HEPES pH 7.4, 0.1 M KCl, 1 mM MgCl2, 0.5% Triton X-100); bound Arf1 by immunoblot; conditions: one partner purified
[3] = target: T2, GFP-GBF1-Y876F immunoprecipitated from cells expressing active SrcEG (human, UniProt Q92538-1 1-1859, Y876F); assay: pull-down; in vitro Arf1 binding assay: NGFP-GBF1 (wild type or mutant) immunoprecipitated on GFP-trap agarose beads from cells expressing SrcKM or SrcEG, incubated with 10 µg recombinant Arf1-del17 protein for 1 hr at 4°C in the presence of GDP; washed three times with HKMT buffer (20 mM HEPES pH 7.4, 0.1 M KCl, 1 mM MgCl2, 0.5% Triton X-100); bound Arf1 by western blot; conditions: both partners purified
T2 construct: GBF1, human, with Y876F; source: expressed in cells coexpressing active SrcEG, immunoprecipitated on GFP-trap agarose beads; not shown: GFP, N-terminal, kept

[4] = target: T3, GFP-GBF1-Y898F immunoprecipitated from cells expressing active SrcEG (human, UniProt Q92538-1 1-1859, Y898F); assay: as above; conditions: both partners purified
T3 construct: GBF1, human, with Y898F; source: expressed in cells coexpressing active SrcEG, immunoprecipitated on GFP-trap agarose beads; not shown: GFP, N-terminal, kept

[5] = target: T4, GFP-GBF1-Y876.898F double mutant immunoprecipitated from cells expressing active SrcEG (human, UniProt Q92538-1 1-1859, Y876F | Y898F); assay: as above; conditions: both partners purified
T4 construct: GBF1, human, with Y876F and Y898F; source: expressed in cells coexpressing active SrcEG, immunoprecipitated on GFP-trap agarose beads; not shown: GFP, N-terminal, kept
T4 sequence (Q92538 other isoform, or with tags, fused parts or gaps Y876F | Y898F | Y876F | Y898F | mutant): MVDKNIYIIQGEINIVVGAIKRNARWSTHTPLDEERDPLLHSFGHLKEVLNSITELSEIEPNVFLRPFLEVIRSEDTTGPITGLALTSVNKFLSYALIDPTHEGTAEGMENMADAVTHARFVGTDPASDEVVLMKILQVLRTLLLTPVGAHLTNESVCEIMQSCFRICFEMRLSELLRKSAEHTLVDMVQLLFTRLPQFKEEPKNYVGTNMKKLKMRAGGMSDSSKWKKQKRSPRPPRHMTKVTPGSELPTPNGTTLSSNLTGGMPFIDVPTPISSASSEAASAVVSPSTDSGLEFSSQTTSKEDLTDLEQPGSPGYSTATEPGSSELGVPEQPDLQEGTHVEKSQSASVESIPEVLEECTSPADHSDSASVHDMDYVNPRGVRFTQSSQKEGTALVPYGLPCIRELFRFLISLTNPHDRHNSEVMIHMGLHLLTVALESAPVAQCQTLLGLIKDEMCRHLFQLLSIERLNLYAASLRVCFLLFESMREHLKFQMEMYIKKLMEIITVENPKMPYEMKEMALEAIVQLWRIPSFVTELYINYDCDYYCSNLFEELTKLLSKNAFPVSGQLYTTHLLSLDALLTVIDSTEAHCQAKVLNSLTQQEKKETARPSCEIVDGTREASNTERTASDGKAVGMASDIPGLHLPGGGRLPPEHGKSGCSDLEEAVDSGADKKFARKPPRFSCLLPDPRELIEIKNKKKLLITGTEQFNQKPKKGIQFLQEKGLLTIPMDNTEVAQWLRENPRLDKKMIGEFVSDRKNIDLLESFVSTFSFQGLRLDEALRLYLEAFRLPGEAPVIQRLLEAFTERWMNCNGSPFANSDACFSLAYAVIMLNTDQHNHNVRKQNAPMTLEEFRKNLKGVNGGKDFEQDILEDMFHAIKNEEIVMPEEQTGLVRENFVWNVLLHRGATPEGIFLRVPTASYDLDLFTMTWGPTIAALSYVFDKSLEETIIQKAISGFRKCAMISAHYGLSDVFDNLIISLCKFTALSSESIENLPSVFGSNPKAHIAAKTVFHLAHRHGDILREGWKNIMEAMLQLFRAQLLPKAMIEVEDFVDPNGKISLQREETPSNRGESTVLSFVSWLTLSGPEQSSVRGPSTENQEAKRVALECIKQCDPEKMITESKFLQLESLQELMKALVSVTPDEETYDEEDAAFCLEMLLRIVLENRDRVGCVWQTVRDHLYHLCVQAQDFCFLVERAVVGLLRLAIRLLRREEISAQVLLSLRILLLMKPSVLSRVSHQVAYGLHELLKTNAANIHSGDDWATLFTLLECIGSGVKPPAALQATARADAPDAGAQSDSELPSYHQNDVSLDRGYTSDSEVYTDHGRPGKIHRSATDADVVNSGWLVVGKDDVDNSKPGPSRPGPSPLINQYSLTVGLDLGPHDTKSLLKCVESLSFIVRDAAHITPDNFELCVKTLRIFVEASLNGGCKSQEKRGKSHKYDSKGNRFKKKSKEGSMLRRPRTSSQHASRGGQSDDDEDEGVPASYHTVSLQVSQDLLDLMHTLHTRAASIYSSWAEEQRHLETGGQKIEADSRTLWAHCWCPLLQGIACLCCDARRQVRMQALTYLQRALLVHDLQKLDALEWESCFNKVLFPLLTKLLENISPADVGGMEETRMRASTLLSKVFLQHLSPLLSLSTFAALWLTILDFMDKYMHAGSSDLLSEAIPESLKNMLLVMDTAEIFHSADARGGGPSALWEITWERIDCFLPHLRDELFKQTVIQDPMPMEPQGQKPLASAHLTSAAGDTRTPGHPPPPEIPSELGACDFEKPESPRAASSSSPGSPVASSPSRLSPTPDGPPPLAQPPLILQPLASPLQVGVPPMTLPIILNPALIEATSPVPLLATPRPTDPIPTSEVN

T1 sequence (Q92538 other isoform, or with tags, fused parts or gaps): as the sequence (Q92538 other isoform, or with tags, fused parts or gaps Y876F | Y898F | Y876F | Y898F | mutant) above, with F876Y, F898Y counted along it
T2 sequence (Q92538 other isoform, or with tags, fused parts or gaps Y876F | Y876F | Y876F Y876F): as the sequence (Q92538 other isoform, or with tags, fused parts or gaps Y876F | Y898F | Y876F | Y898F | mutant) above, with F898Y counted along it
T3 sequence (Q92538 other isoform, or with tags, fused parts or gaps Y898F | Y898F | Y898F Y898F): as the sequence (Q92538 other isoform, or with tags, fused parts or gaps Y876F | Y898F | Y876F | Y898F | mutant) above, with F876Y counted along it

Arf1-GTP levels (GGA3 PBD bead pull-down of endogenous Arf1-GTP) in HEK-IS cells expressing GFP-GBF1, after imidazole activation of Src8A7F, 0 to 45 min, peak at 10 min [1]: ~3 fold
fold increase in bound Arf1-V5 against GFP-GBF1 from SrcKM cells [2]: 2 fold
B1: C-terminal V5-tagged Arf1 (Arf1-V5) (natural protein)
chain: not shown
notes: Arf1 small GTPase (ADP-ribosylation factor 1); The assay was done in the presence of GDP; source: HEK293T cells expressing Arf1-V5, in lysate (pre-cleared with agarose beads); not shown: V5, C-terminal, kept

percent reduction of bound Arf1 against wild-type GFP-GBF1 from SrcEG cells [3]: 40%
percent reduction of bound Arf1 against wild-type GFP-GBF1 from SrcEG cells [4]: 60%
percent reduction of bound Arf1 against wild-type GFP-GBF1 from SrcEG cells [5]: > 70%
B2: Arf1-del17-His, recombinant Arf1 deleted of the first 17 amino acids (domain or fragment)
chain: not shown
notes: Arf1 small GTPase deleted of the first 17 amino acids; The assay was done in the presence of GDP; also called Arf1-His; recombinant Arf1-del17 protein; source: bacterially produced and purified

Source: article PMC8727025, “Src activates retrograde membrane traffic through phosphorylation of GBF1” (eLife, 2021)
